Reference: paper PMC9784262

Each substance was assayed on Nterm (position 1, -----WR----) (assay: potentiometry). Conditions: 25 °C; not stated (no added salt mentioned); none stated (unbuffered aqueous surfactant solution, N2 atmosphere, magnetic stirring); aggregated (micellar): post-micellar surfactant concentration, exact concentration not stated.

**Q.** How did the pKa turn out when “TANHC10 (tryptophan-arginine decyl amide dihydrochloride) (synthetic)” was run?
**A.** 7.2

**Q.** Which pKa does the source give for “TANHC12 (tryptophan-arginine dodecyl amide dihydrochloride) (synthetic)” here?
**A.** 7.8

**Q.** “TANHC14 (tryptophan-arginine tetradecylamide dihydrochloride) (synthetic)” was tested. Which pKa did it give?
**A.** 7.0

These substances were tested on Nterm (position 1, -----FR----) (assay: potentiometry). Conditions: 25 °C; not stated (no added salt mentioned); none stated (unbuffered aqueous surfactant solution, N2 atmosphere, magnetic stirring); aggregated (micellar): post-micellar surfactant concentration, exact concentration not stated.

**Q.** Which pKa does the source give for “PANHC8 (phenylalanine-arginine octyl amide dihydrochloride) (synthetic)” here?
**A.** 6.9

**Q.** With “PANHC10 (phenylalanine-arginine decyl amide dihydrochloride) (synthetic)” as the substance, how does the pKa read?
**A.** 6.9

**Q.** Which pKa does the source give for “PANHC12 (phenylalanine-arginine dodecyl amide dihydrochloride) (synthetic)” here?
**A.** 6.1

**Q.** For “PANHC14 (phenylalanine-arginine tetradecylamide dihydrochloride) (synthetic)”, which pKa is on record?
**A.** 5.9
